Data reported in US20240376151A1, “STAPLED PEPTIDES AND METHODS THEREOF” (FOG PHARMACEUTICALS, INC., priority 2022, published 2024).
Numbered stars: 1 amine (or outer) side, 2 acyl side, 3 side chain; on linkers, the order of the positions; unused ones are H or OH. Bridge positions count the residues as written; N and C are the ends. Ends that are not written are not given here. Phenylene(1,4-NHCOCH2)2 = O=C(C[*:1])Nc1ccc(NC(=O)C[*:2])cc1

Biological target: T1, MDM2 (Homo sapiens, UniProt Q00987)
T1 construct: made in house
T1 sequence (Q00987 25-109): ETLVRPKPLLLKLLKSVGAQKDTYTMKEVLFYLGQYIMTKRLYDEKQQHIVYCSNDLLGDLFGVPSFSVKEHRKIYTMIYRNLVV
Experiment: Naive Library Presenter Screening (phage, NGS), MDM2
Format: binding
Details: for interaction data, BLANK: Blank = Media only

[1] = MDM2 clusters (C82, C85), first column
[2] = MDM2 clusters (C82, C85), second column
[3] = MDM2 clusters (C82, C85), target concentration 10 nM
[4] = MDM2 clusters (C82, C85), target concentration 30 nM
[5] = MDM2 clusters (C82, C85), target concentration 100 nM
[6] = MDM2 clusters (C82, C85), target concentration 300 nM
[7] = MDM2 clusters (C82, C85), target concentration 1000 nM, first column
[8] = MDM2 clusters (C82, C85), target concentration 1000 nM, second column
[9] = MDM2 target concentration 10 nM
[10] = MDM2 target concentration 30 nM
[11] = MDM2 target concentration 100 nM
[12] = MDM2 target concentration 300 nM
[13] = MDM2 target concentration 1000 nM, second column
[14] = MDM2 target concentration 1000 nM, first column

Sequence | interaction data, BLANK [1] | interaction data, BLANK [2] | interaction data at Target Concentration 10 [3] | interaction data at Target Concentration 30 [4] | interaction data at Target Concentration 100 [5] | interaction data at Target Concentration 300 [6] | interaction data at Target Concentration 1000 [7] | interaction data at Target Concentration 1000 [8] | interaction data at Target Concentration 10 [9] | interaction data at Target Concentration 30 [10] | interaction data at Target Concentration 100 [11] | interaction data at Target Concentration 300 [12] | interaction data at Target Concentration 1000 [13] | interaction data at Target Concentration 1000 [14]
DPAYEDCFFAAWNCMMV (linker 7-14 via Phenylene(1,4-NHCOCH2)2 (inferred)) | 0 | 0 | 0 | 5 | 18 | 17 | 23 | 39 | – | – | – | – | – | –
DPAQEDCHAAAFWCIWD (DPAQEDCHAAAFWCIWD-NH2; linker 7-14 via Phenylene(1,4-NHCOCH2)2 (inferred)) | 0 | 0 | 0 | 0 | 15 | 37 | 23 | 48 | – | – | – | – | – | –
DPAMSNCFMAAWECLIQ (linker 7-14 via Phenylene(1,4-NHCOCH2)2 (inferred); not fully specified (C-terminus)) | 0 | 0 | 49 | 104 | 206 | 192 | 185 | 176 | – | – | – | – | – | –
DPADRDCFSAAWACVIR (linker 7-14 via Phenylene(1,4-NHCOCH2)2 (inferred)) | 0 | 0 | 0 | 37 | 188 | 209 | 160 | 215 | – | – | – | – | – | –
DPADIVCQDAAFQCFWW (linker 7-14 via Phenylene(1,4-NHCOCH2)2 (inferred)) | 0 | 0 | 0 | 1 | 12 | 33 | 46 | 18 | – | – | – | – | – | –
DPATQQCFQAAWDCQFM (linker 7-14 via Phenylene(1,4-NHCOCH2)2 (inferred)) | – | – | – | – | – | – | – | – | 1 | 60 | 324 | 683 | 679 | –
DPARRECMDAAFWCQWV (DPARRECMDAAFWCQWV-NH2; linker 7-14 via Phenylene(1,4-NHCOCH2)2 (inferred)) | 0 | 0 | 0 | 53 | 106 | 232 | 148 | 261 | – | – | – | – | – | –
DPAQSDCFQAAWECVAN (DPAQSDCFQAAWECVAN-NH2; linker 7-14 via Phenylene(1,4-NHCOCH2)2 (inferred)) | 0 | 0 | 0 | 0 | 35 | 47 | 52 | 29 | – | – | – | – | – | –
DPASEACFQAAWDCVSW (DPASEACFQAAWDCVSW-NH2; linker 7-14 via Phenylene(1,4-NHCOCH2)2 (inferred)) | – | – | – | – | – | – | – | – | 2 | 57 | 241 | 559 | 447 | 336
DPALFSCDSAAFSCYWY (linker 7-14 via Phenylene(1,4-NHCOCH2)2 (inferred); not fully specified (C-terminus)) | 0 | 0 | 0 | 0 | 25 | 17 | 25 | 57 | – | – | – | – | – | –

Results, then the sequence that gave them:

interaction data, BLANK [1] | interaction data, BLANK [2] | interaction data at Target Concentration 10 [3] | interaction data at Target Concentration 30 [4] | interaction data at Target Concentration 100 [5] | interaction data at Target Concentration 300 [6] | interaction data at Target Concentration 1000 [7] | interaction data at Target Concentration 1000 [8] | interaction data at Target Concentration 10 [9] | interaction data at Target Concentration 30 [10] | interaction data at Target Concentration 100 [11] | interaction data at Target Concentration 300 [12] | interaction data at Target Concentration 1000 [13] | interaction data at Target Concentration 1000 [14] | Sequence
0 | 0 | 0 | 0 | 17 | 31 | 32 | 37 | – | – | – | – | – | – | DPARLRCQDAAFACMWY (DPARLRCQDAAFACMWY-NH2; linker 7-14 via Phenylene(1,4-NHCOCH2)2 (inferred))
0 | 0 | 0 | 0 | 13 | 13 | 36 | 18 | – | – | – | – | – | – | DPAQHHCQQAAFWCQWW (DPAQHHCQQAAFWCQWW-NH2; linker 7-14 via Phenylene(1,4-NHCOCH2)2 (inferred))
0 | 0 | 0 | 12 | 132 | 166 | 104 | 237 | – | – | – | – | – | – | DPAQQDCFLAAWDCVWQ (DPAQQDCFLAAWDCVWQ-NH2; linker 7-14 via Phenylene(1,4-NHCOCH2)2 (inferred))
– | – | – | – | – | – | – | – | 0 | 0 | 7 | 51 | 40 | 70 | DPAENECFTAAWDCMFF (linker 7-14 via Phenylene(1,4-NHCOCH2)2 (inferred))
– | – | – | – | – | – | – | – | 0 | 0 | 19 | 21 | 38 | 13 | DPAYASCFSAAWDCQFW (linker 7-14 via Phenylene(1,4-NHCOCH2)2 (inferred))
0 | 0 | 1 | 48 | 230 | 375 | 356 | 327 | – | – | – | – | – | – | DPAHQQCFMAAWRCVVH (linker 7-14 via Phenylene(1,4-NHCOCH2)2 (inferred))
0 | 0 | 0 | 23 | 158 | 230 | 135 | – | – | – | – | – | – | – | DPAERNCFTAAWQCMVW (linker 7-14 via Phenylene(1,4-NHCOCH2)2 (inferred))
